# Laboratory results reported in patent US20090291890A1 (published 2009).
# Substitutions are numbered along the chain they refer to. Numbers in names are those of the source. Where “and” joins values, the source holds several entries; their conditions need not be identical. Equal values may be shown once.
# B1: FVIIa variant Q286N (enzyme)
# chain: ANAFLEELRPGSLERECKEEQCSFEEAREIFKDAERTKLFWISYSDGDQCASSPCQNGGSCKDQLQSYICFCLPAFEGRNCETHKDDQLICVNENGGCEQYCSDHTGTKRSCRCHEGYSLLADGVSCTPTVEYPCGKIPILEKRNASKPQGRIVGGKVCPKGECPWQVLLLVNGAQLCGGTLINTIWVVSAAHCFDKIKNWRNLIAVLGEHDLSEHDGDEQSRRVAQVIIPSTYVPGTTNHDIALLRLHQPVVLTDHVVPLCLPERTFSERTLAFVRFSLVSGWGNLLDRGATALELMVLNVPRLMTQDCLQQSRKVGDSPNITEYMFCAGYSDGSKDSCKGDSGGPHATHYRGTWYLTGIVSWGQGCATVGHFGVYTRVSQYIEWLQKLMRSEPRPGVLLRAPFP
# B2: FVIIa variant K161S (enzyme)
# chain: B1 chain with K161S, N286Q
# B3: FVIIa variant Q286T (enzyme)
# chain: B1 chain with N286T
# B4: FVIIa variant H373S (enzyme)
# chain: B1 chain with N286Q, H373S
# B5: FVIIa variant H216S (enzyme)
# chain: B1 chain with H216S, N286Q
# B6: FVIIa variant Q286A (enzyme)
# chain: B1 chain with N286A
# B7: FVIIa variant H216K (enzyme)
# chain: B1 chain with H216K, N286Q
# B8: FVIIa variant K161A (enzyme)
# chain: B1 chain with K161A, N286Q
# B9: FVIIa variant H257S (enzyme)
# chain: B1 chain with H257S, N286Q
# B10: FVIIa variant H216R (enzyme)
# chain: B1 chain with H216R, N286Q
# B11: Q286R/S222A/H257A-FVIIa (enzyme)
# chain: B1 chain with S222A, H257A, N286R
# B12: FVIIa variant H257A (enzyme)
# chain: B1 chain with H257A, N286Q
# B13: FVIIa variant Q286D (enzyme)
# chain: B1 chain with N286D
# B14: S222A/H257A/Q286R/M298Q-FVIIa (enzyme)
# chain: B1 chain with S222A, H257A, N286R, M298Q
# B15: FVIIa variant Q286E (enzyme)
# chain: B1 chain with N286E
# B16: T239I-FVIIa (enzyme)
# chain: B1 chain with T239I, N286Q
# B17: FVIIa variant H373E (enzyme)
# chain: B1 chain with N286Q, H373E
# B18: FVIIa variant S222K (enzyme)
# chain: B1 chain with S222K, N286Q
# B19: T239V-FVIIa (enzyme)
# chain: B1 chain with T239V, N286Q
# B20: FVIIa variant Q286S (enzyme)
# chain: B1 chain with N286S
# B21: FVIIa variant H216A (enzyme)
# chain: B1 chain with H216A, N286Q
# B22: Q286R/S222A-FVIIa (enzyme)
# chain: B1 chain with S222A, N286R
# B23: T239I/Q286R/M298Q/Q366N-FVIIa (enzyme)
# chain: B1 chain with T239I, N286R, M298Q, Q366N
# B24: FVIIa variant Q286K (enzyme)
# chain: B1 chain with N286K
# B25: FVIIa variant K161V (enzyme)
# chain: B1 chain with K161V, N286Q
# B26: T239I/M298Q/H373F-FVIIa (enzyme)
# chain: B1 chain with T239I, N286Q, M298Q, H373F
# B27: A175S-FVIIa (enzyme)
# chain: B1 chain with A175S, N286Q
# B28: H257A/M298Q-FVIIa (enzyme)
# chain: B1 chain with H257A, N286Q, M298Q
# B29: FVIIa variant Q286V (enzyme)
# chain: B1 chain with N286V
# B30: FVIIa variant H373D (enzyme)
# chain: B1 chain with N286Q, H373D
# Experiments:
# [1] = molecular target: Factor X (FX) (Homo sapiens (Human)) (UniProt P00742)
# Factor X (FX) (Homo sapiens (Human)), sequence (P00742 41-488 limits assumed): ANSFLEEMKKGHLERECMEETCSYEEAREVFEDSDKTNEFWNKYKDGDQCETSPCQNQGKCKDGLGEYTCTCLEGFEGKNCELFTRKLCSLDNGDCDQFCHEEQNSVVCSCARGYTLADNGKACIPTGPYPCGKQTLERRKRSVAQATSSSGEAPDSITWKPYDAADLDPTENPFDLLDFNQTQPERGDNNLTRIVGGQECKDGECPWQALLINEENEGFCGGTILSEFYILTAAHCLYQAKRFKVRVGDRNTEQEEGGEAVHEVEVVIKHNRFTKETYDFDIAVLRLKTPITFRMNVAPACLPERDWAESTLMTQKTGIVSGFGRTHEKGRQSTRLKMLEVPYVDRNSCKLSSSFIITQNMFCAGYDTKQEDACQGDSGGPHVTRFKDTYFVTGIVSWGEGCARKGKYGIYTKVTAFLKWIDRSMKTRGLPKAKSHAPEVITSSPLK
# [2] = molecular target: Factor X (Homo sapiens (Human)) (UniProt P00742)
Molecule,"kcat/KM, TF-Dependent Indirect Assay [1]","kcat/KM, TF-independent assay [2]","kcat/KM (M^-1s^-1), TF-dependent assay [2]",also measured
FVIIa variant Q286R (enzyme),1.11e+08 M⁻¹ s⁻¹,–,–,–
WT (NovoSeven-RT®) FVIIa (enzyme),–,12.4 M⁻¹ s⁻¹,–,–
FVIIa variant K109N (enzyme),5.97e+07 M⁻¹ s⁻¹,–,–,–
WT (NovoSeven-RT®) (enzyme),–,–,3.48e+07 M⁻¹ s⁻¹,–
FVIIa variant A122N/G124S/A175S (enzyme),2.79e+07 M⁻¹ s⁻¹,–,–,–
T128N/P129A/Q286R/M298Q/Q366N-FVIIa (enzyme),–,64.6 M⁻¹ s⁻¹,1.42e+08 M⁻¹ s⁻¹,–
T128N/P129A/S222A/T239V/H257A/Q286R/M298Q-FVIIa (enzyme),–,179 M⁻¹ s⁻¹,1.21e+08 M⁻¹ s⁻¹,–
FVIIa variant T128N/P129A (enzyme),5.96e+07 M⁻¹ s⁻¹,–,–,–
T128N/P129A/T239V/Q286R/M298Q/H373F-FVIIa (enzyme),–,290 M⁻¹ s⁻¹,2.36e+08 M⁻¹ s⁻¹,–
FVIIa variant S119N/L121S/A175S (enzyme),2.92e+07 M⁻¹ s⁻¹,–,–,–
T128N/P129A/T239I/Q286R/M298Q/H373F-FVIIa (enzyme),–,113 M⁻¹ s⁻¹,1.3e+08 M⁻¹ s⁻¹,–
FVIIa variant M298Q (enzyme),1.4e+08 M⁻¹ s⁻¹,–,–,–
{Gla swap FIX/K43I}/Q286R/M298Q/Q366N-FVIIa (enzyme),–,84.9 M⁻¹ s⁻¹,1.69e+08 M⁻¹ s⁻¹,–
FVIIa variant T128N/P129A/A175S (enzyme),2.98e+07 M⁻¹ s⁻¹,–,–,–
T128N/P129A/M298Q/H373F-FVIIa (enzyme),–,91.6 M⁻¹ s⁻¹,6.07e+07 M⁻¹ s⁻¹,–
T239V/Q286R-FVIIa (enzyme),–,11.8 M⁻¹ s⁻¹,8.84e+07 M⁻¹ s⁻¹,–
Gla swap FIX/S222A/T239I/Q286R-FVIIa (enzyme),–,20.3 M⁻¹ s⁻¹,–,–
{Gla swap FIX/K43I}/T128N/P129A/Q286R/M298Q/Q366N-FVIIa (enzyme),–,218 M⁻¹ s⁻¹,2.52e+08 M⁻¹ s⁻¹,–
FVIIa variant K109N/A175S (enzyme),3.67e+07 M⁻¹ s⁻¹,–,–,–
T128N/P129A/Q286R/M298Q/Q366N/H373F-FVIIa (enzyme),–,–,–,"kcat/KM, TF-dependent assay [2]: 1.33e+08 M⁻¹ s⁻¹"
T128N/P129A/M298Q-FVIIa (enzyme),–,90.8 M⁻¹ s⁻¹,6.29e+07 M⁻¹ s⁻¹,–

Molecule,"kcat/KM, TF-Dependent Indirect Assay [1]","kcat/KM, TF-independent assay [2]","kcat/KM (M^-1s^-1), TF-dependent assay [2]",also measured
T128N/P129A/T239V/Q286R/M298Q-FVIIa (enzyme),–,230 M⁻¹ s⁻¹,1.04e+08 M⁻¹ s⁻¹,–
T128N/P129A/T239I/Q286R/M298Q-FVIIa (enzyme),–,77.8 M⁻¹ s⁻¹,8.17e+07 M⁻¹ s⁻¹,–
WT (NovoSeven®) recombinant human FVIIa (enzyme),–,9.8 M⁻¹ s⁻¹,–,–
{Gla swap FIX/M19K/E40L/K43I/Q44S}/Q286R/M298Q-FVIIa (enzyme),–,–,1.21e+08 M⁻¹ s⁻¹,–
FVIIa variant S52A/S60A (enzyme),1.05e+08 M⁻¹ s⁻¹,–,–,–
WT (NovoSeven®) (enzyme),–,–,3.98e+07 M⁻¹ s⁻¹,–
M298Q-FVIIa (enzyme),–,69.9 M⁻¹ s⁻¹,6.76e+07 M⁻¹ s⁻¹ and 7.46e+07 M⁻¹ s⁻¹,–
Gla swap FIX/S222A/H257S/Q286R-FVIIa (enzyme),–,20.5 M⁻¹ s⁻¹,–,–
Gla swap FIX/S52A/S60A/Q286R/M298Q-FVIIa (enzyme),–,989 M⁻¹ s⁻¹,1.8e+08 M⁻¹ s⁻¹,–
FVIIa variant S222A (enzyme),5.73e+07 M⁻¹ s⁻¹,–,–,–
FVIIa variant Q286R/M298Q/Gla Swap FIX (enzyme),2.64e+08 M⁻¹ s⁻¹,–,–,–
{Gla swap FIX/K43I}/T128N/P129A/Q286R/M298Q-FVIIa (enzyme),–,389 M⁻¹ s⁻¹,2.71e+08 M⁻¹ s⁻¹,–
B1,4.88e+07 M⁻¹ s⁻¹,–,–,–
B2,5.99e+07 M⁻¹ s⁻¹,–,–,–
B3,2.44e+07 M⁻¹ s⁻¹,–,–,–
B4,2.75e+07 M⁻¹ s⁻¹,–,–,–
B5,4.74e+07 M⁻¹ s⁻¹,–,–,–
B6,8.55e+07 M⁻¹ s⁻¹,–,–,–
B7,6.51e+07 M⁻¹ s⁻¹,–,–,–
B8,4.22e+07 M⁻¹ s⁻¹,–,–,–
B9,5.9e+07 M⁻¹ s⁻¹,–,–,–

Molecule,"kcat/KM, TF-Dependent Indirect Assay [1]","kcat/KM, TF-independent assay [2]","kcat/KM (M^-1s^-1), TF-dependent assay [2]",also measured
B10,9.44e+07 M⁻¹ s⁻¹,–,–,–
B11,–,21.3 M⁻¹ s⁻¹,6.98e+07 M⁻¹ s⁻¹,–
B12,3.9e+07 M⁻¹ s⁻¹,–,–,–
B13,6.04e+06 M⁻¹ s⁻¹,–,–,–
B14,–,345 M⁻¹ s⁻¹,1.65e+08 M⁻¹ s⁻¹,–
B15,1.14e+07 M⁻¹ s⁻¹,–,–,–
B16,–,–,2.62e+07 M⁻¹ s⁻¹,–
B17,2.79e+07 M⁻¹ s⁻¹,–,–,–
B18,8.02e+07 M⁻¹ s⁻¹,–,–,–
B19,–,–,4.64e+07 M⁻¹ s⁻¹,–
B20,4.64e+07 M⁻¹ s⁻¹,–,–,–
B21,5.98e+07 M⁻¹ s⁻¹,–,–,–
B22,–,–,1.11e+08 M⁻¹ s⁻¹,–
B23,–,–,–,"kcat/KM, TF-dependent assay [2]: 7.4e+07 M⁻¹ s⁻¹"
B24,5.44e+07 M⁻¹ s⁻¹,–,–,–
B25,5.45e+07 M⁻¹ s⁻¹,–,–,–
B26,–,–,–,"kcat/KM, TF-dependent assay [2]: 3.47e+07 M⁻¹ s⁻¹"
B27,–,–,2.11e+07 M⁻¹ s⁻¹,–
B28,–,–,1.67e+07 M⁻¹ s⁻¹,–
B29,1.65e+07 M⁻¹ s⁻¹,–,–,–
B30,1.79e+07 M⁻¹ s⁻¹,–,–,–
